Test results from paper PMC3861474 (PLoS ONE, 2013).

Legend:
NAGK‑FL25‑C + PII-ST‑V = target: T1, NAGK‑FL25‑C + PII-ST‑V (Synechococcus elongatus, UniProt P0A3F4); test: FRET dissociation of PII - NAGK complex, […] nm ratio; assay type: binding; conditions: 0.1 mM ATP, 20 mM MgCl2, pH 7.5, 100 nM proteins, 30 min; competitive with ATP; a ratio, not a concentration
T1 construct: gene glnB; same FRET complex as P6 (Cerulean on NAGK C-terminus, Strep-tag and Venus on PII C-terminus), E. coli; compound site on PII; with Acetylglutamate kinase
T1 sequence (P0A3F4 whole entry): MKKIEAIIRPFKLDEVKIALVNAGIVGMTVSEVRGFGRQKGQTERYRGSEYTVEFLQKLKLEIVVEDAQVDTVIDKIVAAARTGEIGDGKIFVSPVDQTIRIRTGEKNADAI
T1 sequence (Q6V1L5 whole entry partner): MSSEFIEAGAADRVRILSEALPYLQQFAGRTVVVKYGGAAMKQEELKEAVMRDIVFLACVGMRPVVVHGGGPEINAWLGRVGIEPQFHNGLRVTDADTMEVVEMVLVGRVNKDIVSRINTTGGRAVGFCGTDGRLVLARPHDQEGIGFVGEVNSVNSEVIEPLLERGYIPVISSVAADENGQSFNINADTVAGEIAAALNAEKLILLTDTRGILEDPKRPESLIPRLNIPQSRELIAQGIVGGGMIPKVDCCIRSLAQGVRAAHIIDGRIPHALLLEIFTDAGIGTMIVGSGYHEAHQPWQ

[1] = target: NAGK‑FL25‑C (NAGK fused by a flexible 25-residue linker to Cerulean) (Synechococcus elongatus) (UniProt Q6V1L5)
Chain of NAGK‑FL25‑C (NAGK fused by a flexible 25-residue linker to Cerulean) (Synechococcus elongatus) (Q6V1L5 whole entry, the tested form may be a part): as the sequence (Q6V1L5 whole entry partner) above

[2] = target: N-acetyl-L-glutamate kinase (NAGK), His-tagged wild type (Synechococcus elongatus) (UniProt Q6V1L5)
Chain of N-acetyl-L-glutamate kinase (NAGK), His-tagged wild type (Synechococcus elongatus) (Q6V1L5 whole entry, the tested form may be a part): as the sequence (Q6V1L5 whole entry partner) above

[3] = target: N-acetyl-L-glutamate kinase (NAGK), His-tagged wild type (Synechococcus elongatus) (UniProt Q6V1L5); remark: listed apart in the source
[4] = target: NAGK‑FL25‑C (NAGK fused by a flexible 25-residue linker to Cerulean) (Synechococcus elongatus) (UniProt Q6V1L5); test: FRET or BRET; association kinetics: FRET ratio (525 nm / 475 nm emission) every 8 s, excitation 433 nm; NAGK-FL25-C preincubated at 37 °C, then PII-Venus variant added; 100 nM proteins; 0.1 mM ATP; ratio not background-subtracted (0.54 is the zero baseline)
[5] = target: NAGK‑FL25‑C (NAGK fused by a flexible 25-residue linker to Cerulean) (Synechococcus elongatus) (UniProt Q6V1L5); remark: listed apart in the source
[6] = target: NAGK‑FL25‑C (NAGK fused by a flexible 25-residue linker to Cerulean) (Synechococcus elongatus) (UniProt Q6V1L5); test: FRET or BRET; FRET ratio of NAGK-FL25-C + PII-ST-V with ADP 0.25 to 8 mM and 0.1 mM ATP (ADP/ATP ratio about 80 for the maximal drop); background subtracted and normalised
[7] = target: NAGK‑FL25‑C (NAGK fused by a flexible 25-residue linker to Cerulean) (Synechococcus elongatus) (UniProt Q6V1L5); test: FRET or BRET; FRET ratio of NAGK-FL25-C + PII-ST-V after addition of 2-OG (0.8 and 1.6 mM, the highest concentrations); 0.1 mM ATP; background subtracted and normalised

| Compound | IC50 (ADP/ATP ratio) (NAGK‑FL25‑C + PII-ST‑V) | Kcat of NAGK activity in the presence of PII (NAGK-FL25-C alone 41.36 s^-1) [1] [s⁻¹] | Kcat/Km of NAGK activity in the presence of PII (NAGK-FL25-C alone 1.4E+04) [1] [M⁻¹ s⁻¹] | Kcat of NAGK activity in the presence of PII (coupled NADH oxidation assay; NAGK-wt alone 38.8 s^-1) [2] [s⁻¹] | Kcat/Km of NAGK activity in the presence of PII (NAGK-wt alone 1.2E+04) [2] [M⁻¹ s⁻¹] | relief of NAGK from arginine inhibition by PII: fold increase of the IC50 of arginine in the enzyme assay [3] [times] | maximum FRET ratio (525 nm / 475 nm; zero baseline 0.54) [4] | partial relief of NAGK from arginine inhibition by PII: fold increase of the IC50 of arginine in the enzyme assay [5] [times] | Kcat of NAGK activity in the presence of PII (NAGK-wt alone 38.8 s^-1) [2] [s⁻¹] | FRET level above baseline at the maximal drop (ADP/ATP ratio of about 80) [6] [%] | steady state FRET level above background with 0.8 and 1.6 mM 2-OG [7] [%] |
| --- | --- | --- | --- | --- | --- | --- | --- | --- | --- | --- | --- |
| PII-E85A‑ST‑V (PII E85A, Strep-tag as linker, Venus) (from UniProt P0A3F4 1-112) (natural protein) |  |  |  |  |  |  | 0.6 |  |  |  |  |
| PII-ST‑V (PII, Strep-tag as linker, Venus) (from UniProt P0A3F4 1-112) (natural protein) |  | 134 | 210000 |  | 180000 |  | 1.35 |  | 123 | 10 | 10 |

Now from value to compound:

| IC50 (ADP/ATP ratio) (NAGK‑FL25‑C + PII-ST‑V) | Kcat of NAGK activity in the presence of PII (NAGK-FL25-C alone 41.36 s^-1) [1] [s⁻¹] | Kcat/Km of NAGK activity in the presence of PII (NAGK-FL25-C alone 1.4E+04) [1] [M⁻¹ s⁻¹] | Kcat of NAGK activity in the presence of PII (coupled NADH oxidation assay; NAGK-wt alone 38.8 s^-1) [2] [s⁻¹] | Kcat/Km of NAGK activity in the presence of PII (NAGK-wt alone 1.2E+04) [2] [M⁻¹ s⁻¹] | relief of NAGK from arginine inhibition by PII: fold increase of the IC50 of arginine in the enzyme assay [3] [times] | maximum FRET ratio (525 nm / 475 nm; zero baseline 0.54) [4] | partial relief of NAGK from arginine inhibition by PII: fold increase of the IC50 of arginine in the enzyme assay [5] [times] | Kcat of NAGK activity in the presence of PII (NAGK-wt alone 38.8 s^-1) [2] [s⁻¹] | FRET level above baseline at the maximal drop (ADP/ATP ratio of about 80) [6] [%] | steady state FRET level above background with 0.8 and 1.6 mM 2-OG [7] [%] | Compound |
| --- | --- | --- | --- | --- | --- | --- | --- | --- | --- | --- | --- |
| ~ 10 ADP/ATP ratio |  |  |  |  |  |  |  |  |  |  | Nc1ncnc2c1ncn2[C@@H]1O[C@H](COP(=O)(O)OP(=O)(O)O)[C@@H](O)[C@H]1O [ADP] |
|  | 128 | 240000 | 119 | 180000 | 25 |  |  |  |  |  | PII signal transduction protein, wild type (from UniProt P0A3F4 1-112) (natural protein) |
|  | 99.6 | 250000 |  | 190000 |  | 0.8 | 8.5 | 96.8 |  |  | PII-S49G‑ST‑V (PII S49G, Strep-tag as linker, Venus) (from UniProt P0A3F4 1-112) (natural protein) |
